Data reported in article PMC2173952.

Tests used:
[1] = target: cpSRP54-his (A. thaliana) (UniProt P37107); experiment: co-IP
Trx-cpFtsY = Trx-cpFtsY (UniProt O80842); experiment: pull-down
Sequence of UniProt O80842 (O80842 41-366): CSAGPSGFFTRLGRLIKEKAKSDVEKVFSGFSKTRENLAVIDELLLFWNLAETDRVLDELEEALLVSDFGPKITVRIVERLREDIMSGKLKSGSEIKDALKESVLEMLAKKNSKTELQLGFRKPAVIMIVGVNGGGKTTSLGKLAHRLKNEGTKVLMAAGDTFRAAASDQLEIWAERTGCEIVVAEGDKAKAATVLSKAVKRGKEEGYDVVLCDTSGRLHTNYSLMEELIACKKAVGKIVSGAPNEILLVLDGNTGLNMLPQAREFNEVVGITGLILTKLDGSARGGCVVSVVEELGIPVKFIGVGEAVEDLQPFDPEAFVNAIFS

Sequence of UniProt P37107 (P37107 76-564): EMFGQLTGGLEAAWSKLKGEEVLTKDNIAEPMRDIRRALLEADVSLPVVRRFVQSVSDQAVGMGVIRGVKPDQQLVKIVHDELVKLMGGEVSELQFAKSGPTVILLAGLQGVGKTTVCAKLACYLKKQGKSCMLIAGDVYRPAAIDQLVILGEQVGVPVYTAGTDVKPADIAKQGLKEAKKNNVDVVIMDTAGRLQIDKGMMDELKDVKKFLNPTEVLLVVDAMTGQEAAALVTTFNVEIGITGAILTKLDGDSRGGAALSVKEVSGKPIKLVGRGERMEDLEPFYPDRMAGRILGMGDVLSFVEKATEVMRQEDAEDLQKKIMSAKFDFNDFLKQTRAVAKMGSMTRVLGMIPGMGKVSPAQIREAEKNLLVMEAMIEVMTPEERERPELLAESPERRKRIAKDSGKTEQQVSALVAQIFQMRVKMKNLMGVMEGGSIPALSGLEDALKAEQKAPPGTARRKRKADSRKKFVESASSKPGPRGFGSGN

**Q.** What does the source list for “ALB3 (from UniProt Q8LBP4 57-462) (natural protein)”?
**A.** fold change of the coprecipitate with cpFtsY added against cpSRP alone [1]: > 2 fold; fold change of coprecipitated ALB3 with cpSRP added against cpFtsY alone (Trx-cpFtsY): > 6 fold
